In patent US20130336885A1 (Genentech, published 2013):

T1: gD epitope-tagged rat LgR5 expressed on stably transfected 293 cells (rat, UniProt D4AC13 22-907)
T1 construct: also called gD-tagged rat LgR5
T1 sequence: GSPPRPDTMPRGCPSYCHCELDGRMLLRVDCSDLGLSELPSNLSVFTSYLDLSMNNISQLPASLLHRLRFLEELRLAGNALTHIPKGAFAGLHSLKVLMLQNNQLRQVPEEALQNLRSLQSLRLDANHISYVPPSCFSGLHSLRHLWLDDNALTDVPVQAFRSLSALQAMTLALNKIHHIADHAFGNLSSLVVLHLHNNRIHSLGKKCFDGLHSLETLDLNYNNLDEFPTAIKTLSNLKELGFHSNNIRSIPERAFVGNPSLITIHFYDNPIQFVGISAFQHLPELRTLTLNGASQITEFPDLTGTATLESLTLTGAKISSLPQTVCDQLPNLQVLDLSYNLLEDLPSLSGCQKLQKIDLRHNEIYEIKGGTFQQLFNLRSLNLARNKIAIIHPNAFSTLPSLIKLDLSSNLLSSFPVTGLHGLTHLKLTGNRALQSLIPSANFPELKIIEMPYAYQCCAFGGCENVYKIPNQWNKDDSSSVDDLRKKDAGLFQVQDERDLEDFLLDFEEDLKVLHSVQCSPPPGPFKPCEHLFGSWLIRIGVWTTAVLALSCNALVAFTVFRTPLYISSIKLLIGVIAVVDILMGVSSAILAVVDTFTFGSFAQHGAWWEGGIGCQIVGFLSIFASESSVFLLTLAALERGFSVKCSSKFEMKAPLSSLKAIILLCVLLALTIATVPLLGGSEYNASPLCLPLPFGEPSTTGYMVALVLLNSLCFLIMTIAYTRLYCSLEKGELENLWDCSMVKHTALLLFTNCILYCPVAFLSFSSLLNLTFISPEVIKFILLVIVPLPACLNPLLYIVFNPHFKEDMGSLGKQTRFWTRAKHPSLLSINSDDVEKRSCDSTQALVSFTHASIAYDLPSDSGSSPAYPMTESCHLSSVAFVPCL

T2: gD epitope-tagged mouse LgR5 expressed on stably transfected 293 cells (mouse, UniProt Q9Z1P4 22-907)
T2 construct: also called gD-tagged mouse LgR5
T2 sequence: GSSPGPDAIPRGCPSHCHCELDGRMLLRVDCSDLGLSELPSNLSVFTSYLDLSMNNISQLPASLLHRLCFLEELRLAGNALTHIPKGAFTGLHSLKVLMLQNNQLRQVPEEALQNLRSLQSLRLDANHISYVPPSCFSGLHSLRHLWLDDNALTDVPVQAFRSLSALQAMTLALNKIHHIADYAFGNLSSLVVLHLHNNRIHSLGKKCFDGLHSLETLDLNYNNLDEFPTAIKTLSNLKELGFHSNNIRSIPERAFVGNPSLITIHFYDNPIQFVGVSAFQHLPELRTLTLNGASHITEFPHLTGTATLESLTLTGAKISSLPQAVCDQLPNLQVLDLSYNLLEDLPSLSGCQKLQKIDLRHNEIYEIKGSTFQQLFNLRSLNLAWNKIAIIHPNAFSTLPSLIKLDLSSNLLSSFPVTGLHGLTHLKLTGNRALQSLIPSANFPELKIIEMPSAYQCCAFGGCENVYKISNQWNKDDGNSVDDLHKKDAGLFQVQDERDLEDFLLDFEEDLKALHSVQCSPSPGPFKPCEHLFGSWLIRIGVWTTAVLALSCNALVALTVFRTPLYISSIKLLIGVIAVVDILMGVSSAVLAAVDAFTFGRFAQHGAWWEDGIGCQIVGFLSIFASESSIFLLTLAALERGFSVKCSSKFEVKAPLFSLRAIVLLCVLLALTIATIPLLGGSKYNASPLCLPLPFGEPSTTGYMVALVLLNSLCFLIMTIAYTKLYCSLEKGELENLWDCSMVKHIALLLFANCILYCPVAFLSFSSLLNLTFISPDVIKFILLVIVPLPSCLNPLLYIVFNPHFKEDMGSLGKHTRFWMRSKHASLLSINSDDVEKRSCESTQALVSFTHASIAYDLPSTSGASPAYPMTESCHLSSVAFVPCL

B1: chimeric monoclonal antibody 8E11 (antibody, human IgG1, V domains shown)
VH: QVQLQQSGTELMKPGASVKISCKATGYTFSAYWIEWIKQRPGHGLEWIGEILPGSDSTDYNEKFKVKATFSSDTSSNTVYIQLNSLTYEDSAVYYCARGGHYGSLDYWGQGTTLKVSS
VL: NIVLTQSPASLAVSLGQRATISCRASESVDNYGNSFMHWYQQKPGQPPKLLIYLASNLESGVPARFSGSGSRTDFTLTIDPVEADDAATYYCQQNYEDPFTFGSGTKVEIKR
notes: also called ch8E11; chimeric 8E11
B2: human antibody YW353 (antibody, human IgG1, kappa, V domains shown)
VH: EVQLVESGGGLVQPGGSLRLSCAASGFTFTSYSISWVRQAPGKGLEWVAEIYPPGGYTDYADSVKGRFTISADTSKNTAYLQMNSLRAEDTAVYYCAKARLFFDYWGQGTLVTVSS
VL: DIQMTQSPSSLSASVGDRVTITCRASQDVSTAVAWYQQKPGKAPKLLIYSASFLYSGVPSRFSGSGSGTDFTLTISSLQPEDFATYYCQQSYTTPPTFGQGTKVEIKR
notes: also called huYW353

Legend:
[1] = biological target: T1, gD epitope-tagged rat LgR5 expressed on …; assay: FACS on 293 cells stably transfected with gD epitope-tagged LgR5, 10 ug/ml antibody, R-Phycoerythrin goat anti-human detection
Experimental: (§1) Monoclonal antibodies were tested to determine if they cross-react with LgR5 from species other than human. […] Residues that are identical among all four species are indicated by asterisks (*). […] YW353 antibody binds human and cynomolgus monkey LgR5, but not rat or mouse LgR5. Ch8E11 and hu8E11.v2 antibodies bind all four species of LgR5, although binding to rat LgR5 is not as strong as binding to human, cynomolgus monkey, or mouse LgR5. 2H6 antibody binds to human and mouse LgR5, and was not tested for binding to cynomolgus monkey or rat LgR5.

[2] = biological target: T1, gD epitope-tagged rat LgR5 expressed on …; assay: FACS on stably transfected 293 cells, detected with R-Phycoerythrin goat anti-human antibody
Experimental: as §1

[3] = biological target: T2, gD epitope-tagged mouse LgR5 expressed …; assay: as above
Experimental: as §1

Row | Binder | binding result [1] | binding result [2] | binding result [3]
1 | B1 | binds | – | –
2 | B2 | – | no binding (tested: 10 µg/ml) | no binding (tested: 10 µg/ml)
